# Experimental data as given in patent publication US20260055176A1 (SURFACE ONCOLOGY, published 2026).
# T1: recombinant human IL-27 (human, UniProt Q14213 21-229; Q8NEV9 29-243)
# T1 sequence 1: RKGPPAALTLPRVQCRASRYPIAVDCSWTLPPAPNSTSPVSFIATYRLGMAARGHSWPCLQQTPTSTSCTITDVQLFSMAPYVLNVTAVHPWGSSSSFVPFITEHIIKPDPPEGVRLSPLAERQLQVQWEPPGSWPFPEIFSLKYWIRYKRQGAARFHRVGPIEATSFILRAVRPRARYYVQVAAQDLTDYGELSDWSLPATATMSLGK
# T1 sequence 2: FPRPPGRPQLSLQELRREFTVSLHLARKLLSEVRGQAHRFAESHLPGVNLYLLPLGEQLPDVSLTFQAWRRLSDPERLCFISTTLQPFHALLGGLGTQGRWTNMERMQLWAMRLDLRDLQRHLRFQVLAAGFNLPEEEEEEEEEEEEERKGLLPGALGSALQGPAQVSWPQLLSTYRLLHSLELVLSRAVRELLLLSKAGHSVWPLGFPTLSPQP
# Tests used:
# recombinant human IL-27 [1] = biological target: T1, recombinant human IL-27; assay: cell-based or functional assay
# recombinant human IL-27 [2] = biological target: T1, recombinant human IL-27; assay: MSD sandwich immunoassay: named antibody coated as capture (0.5 ug/mL), recombinant human IL-27 500 ng/mL, biotinylated SRF381 as detection, SULFO-TAG streptavidin
# Description: The ability of anti-IL-27 antibodies to pair with the anti-p28 antibody SRF381 to detect recombinant human IL-27 was assessed by sandwich MSD Immunoassay. Briefly, MSD QUICKPLEX 96-well plates (Meso Scale Discovery L55XA) were coated with 50 μL/well anti-IL-27 antibodies (0.5 μg/mL diluted in PBS) sealed and incubated overnight at 4° C. Plates were washed 3 times with 150 μL/well of wash buffer (PBS+0.01% Tween). Plates were then blocked with 200 μL/well of blocking buffer (PBS+1% BSA+0.01% Tween) for 1 hour at room temperature (RT) with shaking. Blocking buffer was decanted, plates were washed 3 times with 150 μL/well of wash buffer, and 50 μL/well recombinant human IL-27 (R&D Systems 2526-IL/CF) (500 ng/mL diluted in blocking buffer) was added to each well for 2 hours at RT with shaking. Plates were washed 3 times with 150 μL/well of wash buffer, and 50 μL biotinylated SRF381 (diluted 0.5 μg/mL in blocking buffer) was added to each well for 1 hour at RT with shaking. […] Plates were washed 3 times with 150 μL/well of wash buffer and 150 μL of MSD read buffer (Meso Scale Discovery R92TC-1) (diluted to 2X in deionized water) was added to each well and plates were read on a MESO QUICKPLEX SQ120.
# recombinant human IL-27 [3] = biological target: T1, recombinant human IL-27; assay: SPR (Biacore T200), hIL-27 immobilised on CM5, single cycle kinetics
# Description: The antibodies were further characterized by surface plasmon resonance (SPR). Kinetic experiments were performed on a Biacore T200 (GE Healthcare, Uppsala, Sweden). All experiments were run at 25° C. with HBS-P+running buffer (pH 7.4) (GE Healthcare, Little Chalfont, UK) using hIL-27 (R&D Systems, Abingdon, UK). Human IL-27 (hIL-27) antigen was captured on a CM5 chip to ˜ 16 RU. Immobilization was carried out at a protein concentration of 1 μg/mL in 10 mM acetate buffer pH 5.0. A three point, three-fold dilution range from 3.3 nM to 30 nM of antibody diluted in HBS-P+buffer without regeneration between each concentration was used. The association phase for the three injections of increasing concentrations of antibody was monitored for 75 seconds each time and a single dissociation phase was measured for 250 seconds following the last injection of antibody. Regeneration of the hIL-27 surface was conducted using a single injection of 2M MgCl₂ for 120s. Multiple repeats (n=4) of the chimeric antibody were performed throughout the assay to check the stability of the surface and analyte over the kinetic cycles.
binder,measurement,setting,value
"SRF381 (antibody, V domains shown) VH: EVQLVESGGGLVKPGGSLRLSCAASGFTFRSYGMNWVRQAPGKGLEWVSSISSSSSYIYYADSVKGRFTISRDNAKNSLYLQMNSLRAEDTAVYYCARDGGRTSYTATAHNWFDPWGQGTLVTVSS VL: not shown",IC50 of inhibition of IL-27-mediated phosphorylation of STAT1 in HUT-78 cells,recombinant human IL-27 [1],0.08 µg/mL
same,IC50 of inhibition of IL-27-mediated phosphorylation of STAT1 in U937 cells,recombinant human IL-27 [1],0.081 µg/mL
same,IC50 of inhibition of IL-27-mediated phosphorylation of STAT1 in pooled human PBMCs,recombinant human IL-27 [1],0.141 µg/mL
"SRF388 (antibody, V domains shown) VH: EVQLVESGGGLVKPGGSLRLSCAASGFTFRSYGMNWVRQAPGKGLEWVSGISSSGSYIYYADSVKGRFTISRDNAKNSLYLQMNSLRAEDTAVYYCARDGGRTSYTATAHNWFDPWGQGTLVTVSS VL: not shown",IC50 of inhibition of IL-27-mediated phosphorylation of STAT1 in HUT-78 cells,recombinant human IL-27 [1],0.095 µg/mL
same,IC50 of inhibition of IL-27-mediated phosphorylation of STAT1 in U937 cells,recombinant human IL-27 [1],0.096 µg/mL
same,IC50 of inhibition of IL-27-mediated phosphorylation of STAT1 in pooled human PBMCs,recombinant human IL-27 [1],0.0583 µg/mL
"SRF605 (antibody, V domains shown, also called SRF605-A; SRF605-B) VH: QVQLQESGPGLVKPSQTLSLTCTVSGGSISSGGYYWSWIRQHPGKGLEWIGNIYYSGSTYYNPSLKSRVTISVDTSKNQFSLKLSSVTAADTAVYYCARDGVYQPGAYYWGQGTLVTVSS VL: DIQLTQSPSSVSASVGDRVTITCRASQGISSWLAWYQQKPGKAPKLLIYGASSLQSGVPSRFSGSGSGTDFTLTISSLQPEDFATYYCQQGVSFPITFGGGTKVEIKR",binding result,recombinant human IL-27 [2],binds
"Ab7.7 (antibody, human IgG1, kappa, V domains shown, humanized, human IgG1 / kappa; Ab7-VL4 variant; also called Ab7-VH1-IgG1 + Ab7-VL4-Kappa) VH: EVKLVESGGGLVQPGGSLRLSCAASGFTFTSYSMSWVRQAPGKGLEWVAYISYDGGSAYYPDTVKGRFTISRDNSKKTLYLQMSSLKSEDTAMYYCARHGDYDDDDAMDYWGQGTSVTVSS VL: DIQMTQSPSSLSASVGDRVTITCRASENIYSYLNWYQQKPGKAPKLLVYNAETLTEGVPSRFSGSGSGTDFTLTISSLQPEDFATYYCQHHYGTPLTFGQGTKLEIKR",binding result,recombinant human IL-27 [3],no binding (tested: 30 nM)
"Ab7.19 (antibody, human IgG1, kappa, V domains shown, humanized, human IgG1 / kappa; Ab7-VL4 variant; also called Ab7-VH4-IgG1 + Ab7-VL4-Kappa) VH: EVQLVESGGGLVQPGGSLRLSCAASGFTFTSYSMSWVRQAPGKGLEWVAYISYDGGSAYYPDTVKGRFTISRDNSKNTLYLQMNSLRAEDTAVYYCARHGDYDDDDAMDYWGQGTLVTVSS VL: DIQMTQSPSSLSASVGDRVTITCRASENIYSYLNWYQQKPGKAPKLLVYNAETLTEGVPSRFSGSGSGTDFTLTISSLQPEDFATYYCQHHYGTPLTFGQGTKLEIKR",binding result,recombinant human IL-27 [3],no binding (tested: 30 nM)
"Ab7.15 (antibody, human IgG1, kappa, V domains shown, humanized, human IgG1 / kappa; Ab7-VL4 variant; also called Ab7-VH3-IgG1 + Ab7-VL4-Kappa) VH: EVKLVESGGGLVQPGGSLRLSCAASGFTFTSYSMSWVRQAPGKGLEWVAYISYDGGSAYYPDTVKGRFTISRDNSKKTLYLQMNSLRAEDTAVYYCARHGDYDDDDAMDYWGQGTLVTVSS VL: DIQMTQSPSSLSASVGDRVTITCRASENIYSYLNWYQQKPGKAPKLLVYNAETLTEGVPSRFSGSGSGTDFTLTISSLQPEDFATYYCQHHYGTPLTFGQGTKLEIKR",binding result,recombinant human IL-27 [3],no binding (tested: 30 nM)
"Ab7.23 (antibody, human IgG1, kappa, V domains shown, humanized, human IgG1 / kappa; Ab7-VL4 variant; also called Ab7-VH5-IgG1 + Ab7-VL4-Kappa) VH: EVQLVESGGGLVQPGGSLRLSCAASGFTFTSYSMSWVRQAPGKGLEWVSYISYDGGSAYYPDTVKGRFTISRDNSKNTLYLQMNSLRAEDTAVYYCARHGDYDDDDAMDYWGQGTLVTVSS VL: DIQMTQSPSSLSASVGDRVTITCRASENIYSYLNWYQQKPGKAPKLLVYNAETLTEGVPSRFSGSGSGTDFTLTISSLQPEDFATYYCQHHYGTPLTFGQGTKLEIKR",binding result,recombinant human IL-27 [3],no binding (tested: 30 nM)
"Ab7.11 (antibody, human IgG1, kappa, V domains shown, humanized, human IgG1 / kappa; Ab7-VL4 variant; also called Ab7-VH2-IgG1 + Ab7-VL4-Kappa) VH: EVQLVESGGGLVQPGGSLRLSCAASGFTFTSYSMSWVRQAPGKGLEWVAYISYDGGSAYYPDTVKGRFTISRDNSKNTLYLQMSSLKSEDTAMYYCARHGDYDDDDAMDYWGQGTLVTVSS VL: DIQMTQSPSSLSASVGDRVTITCRASENIYSYLNWYQQKPGKAPKLLVYNAETLTEGVPSRFSGSGSGTDFTLTISSLQPEDFATYYCQHHYGTPLTFGQGTKLEIKR",binding result,recombinant human IL-27 [3],no binding (tested: 30 nM)
